The values that follow come from patent US6610523B1, “Cytokine-, stress-, and oncoprotein-activated human protein kinase kinases” (University of Massachusetts, priority 1995, dated 2003).

This experiment addresses T1, p38 MAP kinase (Homo sapiens, UniProt Q16539).
T1 construct: a PCR fragment containing the coding region of the p38 MAP kinase cDNA; GST (N); made in house; host or cells: bacteria
The experiment in a line: Substrate phosphorylation by bacterially-expressed p38 MAP kinase, PhosphorImager quantitation. The format is biochemical. To be noted: 30 minutes reaction; ATF2 = 1.0. The method, then:
Substrate phosphorylation by p38 MAP kinase was examined by incubation of bacterially-expressed p38 MAP kinase with IKB, cMyc, EGF-R, cytoplasmic phospholipase A2 (cPLA2), c-Jun, and mutated ATF2 (Thr^69,71) and ATP [γ-^32P] (Raingeaud et al. (1995) J. Biol. Chem 270:7420, herein specifically incorporated by reference). GST-IKB was provided by Dr D. Baltimore (Massachusetts Institute of Technology). GST-cMyc (Alvarez et al. (1991) J. Biol. Chem. 266:15277), GST-EGF-R (residues 647-688) (Koland et al. (1990) Biochem. Biophys. Res. Commun. 166:90), and GST-c-Jun (Dérijard et al. (1994) supra) have been described. The phosphorylation reaction was terminated after 30 minutes by addition of Laemmli sample buffer. The phosphorylated proteins were resolved by SDS-PAGE and detected by autoradiography. The rate phosphorylation of the substrate proteins was quantitated by PhosphorImager (Molecular Dynamics Inc.) analysis. The relative phosphorylation of ATF2, MBP, EGF-R, and IKB was 1.0, 0.23, 0.04, and 0.001, respectively.

T1 sequence (Q16539 whole entry, the tested form may be a part): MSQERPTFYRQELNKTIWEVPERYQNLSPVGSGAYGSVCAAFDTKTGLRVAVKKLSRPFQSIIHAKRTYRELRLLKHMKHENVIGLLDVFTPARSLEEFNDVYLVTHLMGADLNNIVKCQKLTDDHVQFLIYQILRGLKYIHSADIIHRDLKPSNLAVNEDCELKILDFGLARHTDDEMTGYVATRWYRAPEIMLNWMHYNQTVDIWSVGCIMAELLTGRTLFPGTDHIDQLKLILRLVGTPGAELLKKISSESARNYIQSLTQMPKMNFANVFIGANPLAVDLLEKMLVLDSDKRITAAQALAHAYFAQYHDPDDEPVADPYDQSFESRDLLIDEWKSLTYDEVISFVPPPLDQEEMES

B1: ATF2: Activating Transcription Factor-2, substrate protein of p38 (protein)
chain: MKFKLHVNSARQYKDLWNMSDDKPFLCTAPGCGQRFTNEDHLAVHKHKHEMTLKFGPARNDSVIVADQTPTPTRFLKNCEEVGLFNELASPFENEFKKASEDDIKKMPL
Regarding B1, the “relative phosphorylation of substrate protein by p38 MAP kinase” value is on record as 1.0.
